Measured values published in the supplement of paper PMC5998384.

Legend:
HeLa Kyoto [1] = test: thermal stability score vs G1/S (z-score of summed log2 fold changes over temperatures); higher = more thermally stable than in G1/S
HeLa Kyoto [2] = test: melting temperature (median over replicates), in situ; higher = more thermally stable
HeLa Kyoto [3] = test: solubility change mitosis vs G1/S (difference of NP-40 vs SDS log2 ratios) (log2 ratio difference); higher = more soluble in mitosis
HeLa Kyoto [4] = test: solubility in G1/S (NP-40 vs SDS abundance) (log2 ratio); higher = more soluble; conditions: cell cycle stage: G1/S
[5] = cell cycle stage: early G1 (4.5 h after nocodazole release)
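For melting temperature (median over replicates), in situ in this document: HeLa Kyoto cells synchronized by double thymidine or nocodazole block, proteins quantified by TMT10plex mass spectrometry, three independent biological replicates.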
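For solubility change mitosis vs G1/S (difference of NP-40 vs SDS log2 ratios) in this document: synchronized HeLa Kyoto cells (double thymidine block for G1/S, nocodazole release for mitosis), protein amounts in NP-40 versus SDS lysates quantified by mass spectrometry, three biological replicates.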
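For solubility in G1/S (NP-40 vs SDS abundance) in this document: HeLa Kyoto cells arrested at G1/S by double thymidine block, proteins quantified by TMT10plex mass spectrometry in mild NP-40 versus SDS extracts, three biological replicates.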
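For thermal stability score vs G1/S (z-score of summed log2 fold changes over temperatures) in this document: synchronized HeLa Kyoto cells, proteins quantified by TMT10plex mass spectrometry, three biological replicates, mitosis taken 0.5 h after nocodazole release, G1/S directly after double thymidine block.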

Row | Sequence | thermal stability score (HeLa Kyoto [1]; [5]) | thermal stability score (HeLa Kyoto [1]; cell cycle stage: mitosis) | melting temperature (HeLa Kyoto [2]; cell cycle stage: G1/S) [°C] | melting temperature (HeLa Kyoto [2]; cell cycle stage: mitosis) [°C] | solubility change mitosis (log2) (HeLa Kyoto [3]) | solubility in G1/S (log2) (HeLa Kyoto [4])
1 | MFVQEEKIFAGKVLRLHICASDGAEWLEEATEDTSVEKLKERCLKHCAHGSLEDPKSITHHKLIHAASERVLSDARTILEENIQDQDVLLLIKKRAPSPLPKMADVSAEEKKKQDQKAPDKEAILRATANLPSYNMDRAAVQTNMRDFQTELRKILVSLIEVAQKLLALNPDAVELFKKANAMLDEDEDERVDEAALRQLTEMGFPENRATKALQLNHMSVPQAMEWLIEHAEDPTIDTPLPGQAPPEAEGATAAASEAAAGASATDEEARDELTEIFKKIRRKREFRADARAVISLMEMGFDEKEVIDALRVNNNQQNAACEWLLGDRKPSPEELDKGIDPDSPLFQAILDNPVVQLGLTNPKTLLAFEDMLENPLNSTQWMNDPETGPVMLQISRIFQTLNRT [UBAC1] | 1.16 | 0.844 | 50.9 | 50.6 | -0.0991 | 0.313
2 | MGAAHSASEEVRELEGKTGFSSDQIEQLHRRFKQLSGDQPTIRKENFNNVPDLELNPIRSKIVRAFFDNRNLRKGPSGLADEINFEDFLTIMSYFRPIDTTMDEEQVELSRKEKLRFLFHMYDSDSDGRITLEEYRNVVEELLSGNPHIEKESARSIADGAMMEAASVCMGQMEPDQVYEGITFEDFLKIWQGIDIETKMHVRFLNMETMALCH [TESC] | 0.145 | 1.31 | 51.1 | 51.7 | 0.0705 | 0.101
3 | MGAFLDKPKMEKHNAQGQGNGLRYGLSSMQGWRVEMEDAHTAVIGLPSGLESWSFFAVYDGHAGSQVAKYCCEHLLDHITNNQDFKGSAGAPSVENVKNGIRTGFLEIDEHMRVMSEKKHGADRSGSTAVGVLISPQHTYFINCGDSRGLLCRNRKVHFFTQDHKPSNPLEKERIQNAGGSVMIQRVNGSLAVSRALGDFDYKCVHGKGPTEQLVSPEPEVHDIERSEEDDQFIILACDGIWDVMGNEELCDFVRSRLEVTDDLEKVCNEVVDTCLYKGSRDNMSVILICFPNAPKVSPEAVKKEAELDKYLECRVEEIIKKQGEGVPDLVHVMRTLASENIPSLPPGGELASKRNVIEAVYNRLNPYKNDDTDSTSTDDMW [PPM1A] | 0.1 | -0.132 | 51.9 | 52 | -0.159 | 0.243
4 | MGALRPTLLPPSLPLLLLLMLGMGCWAREVLVPEGPLYRVAGTAVSISCNVTGYEGPAQQNFEWFLYRPEAPDTALGIVSTKDTQFSYAVFKSRVVAGEVQVQRLQGDAVVLKIARLQAQDAGIYECHTPSTDTRYLGSYSGKVELRVLPDVLQVSAAPPGPRGRQAPTSPPRMTVHEGQELALGCLARTSTQKHTHLAVSFGRSVPEAPVGRSTLQEVVGIRSDLAVEAGAPYAERLAAGELRLGKEGTDRYRMVVGGAQAGDAGTYHCTAAEWIQDPDGSWAQIAEKRAVLAHVDVQTLSSQLAVTVGPGERRIGPGEPLELLCNVSGALPPAGRHAAYSVGWEMAPAGAPGPGRLVAQLDTEGVGSLGPGYEGRHIAMEKVASRTYRLRLEAARPGDAGTYRCLAKAYVRGSGTRLREAASARSRPLPVHVREEGVVLEAVAWLAGGTVYRGETASLLCNISVRGGPPGLRLAASWWVERPEDGELSSVPAQLVGGVGQDGVAELGVRPGGGPVSVELVGPRSHRLRLHSLGPEDEGVYHCAPSAWVQHADYSWYQAGSARSGPVTVYPYMHALDTLFVPLLVGTGVALVTGATVLGTITCCFMKRLRKR [IGSF8] | -2.98 | -1.56 | 56.3 | 54.7 | -0.0392 | -0.0809
5 | MGDAKEAGAEGPPAGAAARGGLSLLSQGESEESSAQGSALFLGGNEVKSRAVVKYSSAPPRTAFARLEEKTDLKLPPANWLRESAKLGPAGTTILGNSKKSKPFSSFGMAYDFIDSVGNDVDVVSDSENIKKLLKIPYSKSHVSMAVHRIGRTLLLDELDIQELFMRSSQTGDWTWLKEFYQRLIDQKWQRKKKSKEHWYQKAILSKFLYYSINGDGAAQPVSSTAEQQESSSSDQTNDSEGASWPAPFEMPSSVSEDPSASSQGSEPLEPSYIVGHVASAPKEQNLITLFNDGEHSQGLKNDFVRNILWTFEDIHMLVGSNMPIFGGGRYPAVSLRLRDNNKPINVLTGIDYWLDNLICNVPELVMCFHVNGIVQKYEMIKTEEIPNLENSNFSTKVIKDIAQNILSFLKSNCTKEGHTYWLFKASGSDIVKLYDLTTLCEETEDKYQNPFTMPVAILLYKVACNMMMKKNQNKKHYGTIRTLLLNCLKLLDKSRHPQIIASANYMLSELFQLDEPKKEENSESPLNENSDESYSEEEEEMPDSDENGSYSTSSDPSDDSKAVAIIKSVGELSVPEKYKSIHQIRPSCAFPVCHDTEERCRLVLSYVLEGLKSVDSSIKKESDLPAADPSTPIPLKYEDESSRGGPEGLEKQMALFLDKMGSLQKGNYSSQSGMIPGSWQHKMKLQLILKSSKAYYVLSDAAMSLQKYGRALRYIKLALQSHDTYCCLCTNMLSEVLLFLSQYLTLCGDIQLMLAQNANNRAAHLEEFHYQTKEDQEILHSLHRESSCQGFAWATDLSTDLESQLSVSCKCYEAANEILQFSDLKSQNPEHYVQVLKRMGNIRNEIGVFYMNQAAALQSERLVSKSVSAAEQQLWKKSFSCFEKGIHNFESIEDATNAALLLCNTGRLMRICAQAHCGAGDELKREFSPEEGLYYNKAIDYYLKALRSLGTRDIHPAVWDSVNWELSTTYFTMATLQQDYAPLSRKAQEQIEKEVSEAMMKSLKYCDVDSVSARQPLCQYRAATIHHRLASMYHSCLRNQVGDEHLRKQHRVLADLHYSKAAKLFQLLKDAPCELLRVQLERVAFAEFQMTSQNSNVGKLKTLSGALDIMVRTEHAFQLIQKELIEEFGQPKSGDAAAAADASPSLNREEVMKLLSIFESRLSFLLLQSIKLLSSTKKKTSNNIEDDTILKTNKHIYSQLLRATANKTATLLERINVIVHLLGQLAAGSAASSNAVQ [EDRF1] | 0.416 | -0.168 | 51 | 49.3 | -0.0878 | -0.026
